The text below walks through data of patent US20210238289A1.

For experiment [1], the target named is VLA-4 on tumor cell lines (UniProt P13612). The experiment in a line: inhibition of adhesion of Mec1 cells to fibronectin-coated wells.
For experiment [2] the target is unchanged. The experiment in a line: flow cytometry on Mec1 cells (CLL). (In flow cytometry, cells or beads pass a laser one at a time.)
For experiment [3] the target is unchanged. The experiment in a line: inhibition of adhesion of HL60 cells to VCAM1-Ig-coated wells.
The target is the same in experiment [4]. The experiment in a line: flow cytometry on U266 cells (MM).
Experiment [5] has the same target. Put plainly: flow cytometry on HL60 cells (AML).
For experiment [6] the target is unchanged. The experiment in a line: flow cytometry on JM1 cells (CLL).
Experiment [7] shares this target. The experiment in a line: inhibition of adhesion of KG1 cells to fibronectin-coated wells.
In experiment [8] the target is α4β1 (VLA-4) as used in the competition ELISAs (UniProt P13612). The experiment in a line: competition ELISA; mixture of mouse HP1/2 with test mAb binding to integrin. Background: ELISA stands for enzyme-linked immunosorbent assay.
Experiment [9] concerns the target VLA-4 on tumor cell lines (UniProt P13612). Put plainly: inhibition of adhesion of Mec1 cells to VCAM1-Ig-coated wells.
Experiment [10] shares this target. The experiment in a line: flow cytometry on H929 cells (MM).
The target is the same in experiment [11]. Put plainly: inhibition of adhesion of KG1 cells to VCAM1-Ig-coated wells.
For experiment [12] the target is unchanged. The experiment in a line: inhibition of adhesion of U266 cells to fibronectin-coated wells.
For experiment [13] the target is unchanged. Put plainly: inhibition of adhesion of H929 cells to fibronectin-coated wells.
Experiment [14] shares this target. Put plainly: inhibition of adhesion of U266 cells to VCAM1-Ig-coated wells.
Experiment [15] has the same target. The experiment in a line: inhibition of adhesion of H929 cells to VCAM1-Ig-coated wells.
Experiment [16] shares this target. The experiment in a line: flow cytometry on KG1 cells (AML).
The target is the same in experiment [17]. Put plainly: inhibition of adhesion of HL60 cells to fibronectin-coated wells.
Experiment [18] has the same target. Put plainly: inhibition of adhesion of JM1 cells to VCAM1-Ig-coated wells.
Experiment [19] deals with α4β1 (VLA-4) as used in the competition ELISAs (UniProt P13612). Put plainly: competition ELISA; integrin preincubated with test mAb, then murine HP1/2 as competing reagent.
The target in experiment [20] is CD32a (UniProt P12318). Put plainly: solution competition SPR (Biacore). (In general: In SPR one partner is held on a chip, and binding of the other changes the refractive index at the surface.)
For experiment [21], the target named is VLA receptors (alpha-4 integrin) of cynomolgus monkeys in vivo (cynomolgus monkey). The experiment in a line: free receptor measured in cynomolgus monkeys after a single IV dose.
The target is the same in experiment [22]. Put plainly: model-estimated (direct Emax PKPD model) EC50 for the formation of drug-bound VLA in cynomolgus monkeys.

A value given as a limit tells only on which side of the number the result lay.

Sequence of TYSABRI (natalizumab) (antibody) (VH): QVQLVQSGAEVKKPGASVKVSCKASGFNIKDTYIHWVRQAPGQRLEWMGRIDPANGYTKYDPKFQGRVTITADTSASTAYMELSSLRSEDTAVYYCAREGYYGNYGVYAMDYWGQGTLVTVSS
Sequence of TYSABRI (natalizumab) (antibody) (VL): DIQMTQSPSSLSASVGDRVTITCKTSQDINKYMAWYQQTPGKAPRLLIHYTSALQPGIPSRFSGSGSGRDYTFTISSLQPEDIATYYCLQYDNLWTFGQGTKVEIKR

In the case of HuHP1/2 (antibody), the concentration for half-maximal inhibition (IC50) (usually the concentration at which inhibition is half-maximal) was determined as 0.0001 µM in [1]; 0.00091 µM in experiment [3]; 0.05 nM in experiment [7]; 0.00141 µM in experiment [8]; 0.07 nM in experiment [9]; 0.0001 µM in experiment [11]. In addition, the half-maximal inhibitory concentration (IC50) turned out to be 0.00014 µM in [12]; 0.00021 µM in experiment [13]; 0.00013 µM in experiment [14]; 0.00135 µM in experiment [15]; 0.00016 µM in [17]; 0.00012 µM in experiment [18]. In [19], this substance had an IC50 of 0.00105 µM. The EC50 (in general, the concentration giving half of the maximal effect) in experiment [2] stood at 0.00011 µM; in experiment [4] it was 0.00046 µM; in [5], 0.00011 µM; in experiment [6] it was 0.00021 µM; in [10] it was 0.00091 µM; in experiment [16], 0.00019 µM.
As for EAG2379 (hu5c8 IgG1 T299E) (antibody), in experiment [20], the IC50 amounted to 1280 µM.
The substance TYSABRI (natalizumab) (antibody) gave a receptor occupancy in [21] of more than 90%. The EC50 in experiment [22] is 6.4 ng/mL.
